± gives the standard deviation of the averaged measurements.
System: ATP
Assay: switch fluorescence ratio, 500 uM ATP over buffer (Cy3 cluster intensity, sum of 5 cycles each) (fold (ratio)); higher = stronger signal-on switching upon ATP binding; sequences stand for … in TCGTCGGCAGCGTCAGATGTGTATAAGAGACAGTTTTTTTTTTTTTTTTTTTTTTTTT…TC
Conditions: aptamer strand: ATP DNA aptamer (quencher-CACCTGGGGGAGTATTGCGGAGGAAGG + anchor), 100 nM annealed; ATP concentration: 500 uM
Procedure, shortened: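 Five buffer/ATP imaging cycles were run on Cy3-labelled switching-strand clusters on a modified Illumina MiSeq flow-cell, with NaOH stripping and re-annealing between cycles. In each cycle, clusters annealed to 100 nM quencher-labelled ATP aptamer were imaged in selection buffer, then after 15 min with 500 uM ATP at 22 °C. Per cluster, the fluorescence ratio is summed target-cycle over summed buffer-cycle Cy3 intensity, averaged per switch-domain sequence. Only clusters within 100-1000 RFU were kept.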
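Also: ATP exposure 15 min at 22 °C before imaging.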

Sequence | switch fluorescence ratio
GAAATTACAG | 0.994 ± 0.016
GAAATTAGCC | 1.053 ± 0.0092
GAAATTAGTT | 0.991 ± 0.018
GAAATTATTA | 0.9919 ± 0.0075
GAAATTGCAT | 0.996 ± 0.02
GAAATTGGTT | 0.988 ± 0.067
GAAATTTTGC | 0.995 ± 0.033
GAACGGCTCG | 1.023 ± 0.0038
GAACGTTGGG | 0.993 ± 0.033
GAACTAGGTC | 1.01 ± 0.021
GAACTGATGT | 1 ± 0.018
GAACTGTATG | 1.05 ± 0.056
GAACTTCTGG | 0.985 ± 0.038
GAACTTTTTA | 0.981 ± 0.011
GAAGAAAATT | 1.01 ± 0.014
GAAGAATGGT | 0.975 ± 0.013
GAAGAATGTG | 1.01 ± 0.0082
GAAGAGGGAT | 0.981 ± 0.049
GAAGATACGG | 1.03 ± 0.032
GAAGATTTCT | 0.976 ± 0.03
GAAGCTAGAA | 1.52 ± 0.3
GAAGGAAAAG | 0.992 ± 0.099
GAAGGATAGC | 0.998 ± 0.018
GAAGGATAGG | 0.975 ± 0.029
GAAGGCCCGG | 0.99 ± 0.062

Sequence | switch fluorescence ratio
GAAGGGAAAG | 1.02 ± 0.012
GAAGGGAGAG | 0.993 ± 0.031
GAAGGGCGCG | 1.029 ± 0.0034
GAAGGGGATT | 1.015 ± 0.01
GAAGGGGGAT | 1.02 ± 0.051
GAAGGGGGTA | 0.996 ± 0.028
GAAGGGTATT | 1.01 ± 0.026
GAAGGGTGCG | 1.02 ± 0.034
GAAGGTGAAT | 1.04 ± 0.022
GAAGGTTAGG | 0.9866 ± 0.0081
GAAGTACGTC | 1.23 ± 0.18
GAAGTAGAGG | 1 ± 0.032
GAAGTAGCAG | 0.984 ± 0.025
GAAGTAGTGG | 1.01 ± 0.014
GAAGTATGAT | 0.962 ± 0.042
GAAGTCGAAT | 1.014 ± 0.0091
GAAGTCGGAT | 0.979 ± 0.019
GAAGTTTAAA | 1.02 ± 0.035
GAAGTTTGAT | 0.9867 ± 0.0011
GAATAAAGAG | 0.966 ± 0.034
GAATAACTGG | 0.993 ± 0.084
GAATAAGGGA | 1 ± 0.014
GAATAAGTCC | 1.04 ± 0.028
GAATAATGAT | 0.989 ± 0.028
GAATACGGGG | 1.06 ± 0.044

Sequence | switch fluorescence ratio
GAATAGAGGT | 1.02 ± 0.037
GAATATAATG | 0.978 ± 0.032
GAATATTTAG | 0.958 ± 0.015
GAATATTTCT | 1.02 ± 0.021
GAATCAGTGT | 1 ± 0.022
GAATCGGCAT | 1.02 ± 0.039
GAATCGGGGA | 1.012 ± 0.0031
GAATCTGTGT | 0.998 ± 0.031
GAATCTTGGA | 0.99 ± 0.015
GAATGAGTCT | 1.01 ± 0.091
GAATGCTCAC | 1.14 ± 0.064
GAATGGCCAG | 0.992 ± 0.034
GAATGGGACG | 1 ± 0.021
GAATGGGATC | 0.9698 ± 0.0059
GAATGGGGCA | 0.978 ± 0.032
GAATGGGGTC | 0.976 ± 0.011
GAATGGGGTT | 0.98 ± 0.026
GAATGGGTAG | 0.9961 ± 0.0042
GAATGGTTTT | 0.971 ± 0.084
GAATGTAGTT | 1.01 ± 0.017
GAATGTATGG | 1.04 ± 0.049
GAATTAAGTT | 1.01 ± 0.033
GAATTACGGC | 1.04 ± 0.069
GAATTAGCTT | 0.983 ± 0.023
GAATTAGTGT | 0.984 ± 0.019

Sequence | switch fluorescence ratio
GAATTATGGC | 1.01 ± 0.085
GAATTATTAA | 0.9922 ± 0.0026
GAATTCGGCT | 1.0193 ± 6.4e-05
GAATTCTCCG | 1.18 ± 0.012
GAATTCTCGT | 0.969 ± 0.024
GAATTCTGAG | 1.02 ± 0.04
GAATTGGATG | 0.965 ± 0.052
GAATTGGGAG | 0.998 ± 0.02
GAATTGGTTT | 0.999 ± 0.017
GAATTGTTCG | 0.985 ± 0.051
GAATTTGTTT | 0.984 ± 0.035
GAATTTTCG | 1.009 ± 0.0097
GAATTTTTGA | 0.991 ± 0.021
GACAAAGATT | 1.0037 ± 0.00037
GACAATAGGC | 1.1 ± 0.045
GACAATGGTT | 1 ± 0.027
GACAATTCGG | 1.01 ± 0.021
GACAGAAGGC | 1 ± 0.052
GACAGATATG | 0.979 ± 0.081
GACAGCCCAG | 1 ± 0.019
GACAGGGATG | 1.02 ± 0.039
GACAGGTCGT | 1.043 ± 0.0054
GACAGGTGGG | 1.07 ± 0.059
GACATAAAAG | 1.03 ± 0.053
GACATTCTCG | 1.005 ± 0.0086

Sequence | switch fluorescence ratio
GACATTTGTT | 0.986 ± 0.014
GACCACGGTC | 1.02 ± 0.041
GACCACTATC | 1.1 ± 0.02
GACCATACGT | 1.49 ± 0.026
GACCATGAAA | 0.96295 ± 0.0008
GACCATGGGG | 1.07 ± 0.098
GACCATTGTC | 0.99 ± 0.063
GACCATTTAA | 1.023 ± 0.0027
GACCCGCCAA | 4.89 ± 1
GACCCTTACC | 1.38 ± 0.014
GACCGATTGT | 1.03 ± 0.065
GACCGCAGCA | 4.22 ± 0.49
GACCTTGGGA | 0.992 ± 0.039
GACCTTTCGT | 1.1 ± 0.069
GACGAAAAAG | 0.982 ± 0.017
GACGACATGT | 1.09 ± 0.035
GACGACGTGC | 2.33 ± 0.44
GACGACTCGG | 0.987 ± 0.026
GACGAGCCTG | 0.996 ± 0.015
GACGAGGGGC | 1.18 ± 0.031
GACGATTATA | 1.028 ± 0.0017
GACGCACTGG | 1.853 ± 0.0015
GACGCGTGTG | 1.03 ± 0.042
GACGCTAAGG | 1.094 ± 0.0069
GACGGAGGCA | 1.03 ± 0.031

Sequence | switch fluorescence ratio
GACGGATACA | 1.38 ± 0.091
GACGGCTATG | 1 ± 0.048
GACGGGCAGG | 1.027 ± 0.0056
GACGGGGAAG | 1.08 ± 0.069
GACGGGGAAT | 0.979 ± 0.01
GACGGGGCGG | 0.994 ± 0.031
GACGGGGCTA | 1.01 ± 0.023
GACGGGGGGA | 1.03 ± 0.077
GACGGGGGGG | 1 ± 0.023
GACGGTAAAA | 1.04 ± 0.015
GACGGTAGTA | 1.02 ± 0.017
GACGGTGTGC | 1.077 ± 0.0059
GACGGTTCAG | 1.03 ± 0.023
GACGTACAAC | 1.619 ± 0.0099
GACGTACTCA | 1.51 ± 0.17
GACGTCTGGC | 1.14 ± 0.24
GACGTGATCC | 2.5 ± 0.8
GACGTGTTG | 1.01 ± 0.025
GACGTTAAAC | 1.56 ± 0.019
GACGTTAAAT | 1.01 ± 0.034
GACGTTTTGC | 1.073 ± 0.0083
GACTAACGCA | 1.25 ± 0.057
GACTAACGGA | 1.19 ± 0.1
GACTAACTAC | 1.251 ± 0.0087
GACTAAGGGG | 1 ± 0.02

Sequence | switch fluorescence ratio
GACTAATTAA | 0.978 ± 0.036
GACTAGGCCT | 0.988 ± 0.02
GACTAGTTAT | 0.993 ± 0.019
GACTATAATT | 1.026 ± 0.0032
GACTATGAGG | 1.02 ± 0.095
GACTATTGAA | 1 ± 0.056
GACTCAGGGG | 1.39 ± 0.56
GACTGCGGAA | 2.04 ± 0.038
GACTGGATAG | 0.983 ± 0.022
GACTGTAGGA | 1.03 ± 0.0051
GACTGTGAGA | 1 ± 0.034
GACTGTTATG | 0.989 ± 0.024
GACTTAATGG | 0.962 ± 0.051
GACTTAGTGT | 1.012 ± 0.0036
GACTTATGAG | 1.01 ± 0.047
GACTTGAATG | 0.976 ± 0.011
GACTTGACTG | 1.11 ± 0.03
GACTTGGGTG | 1.02 ± 0.038
GACTTGTGTA | 0.994 ± 0.016
GACTTTAGGG | 1.02 ± 0.065
GAGAAAAATG | 0.9597 ± 0.0087
GAGAAAAGGG | 1.04 ± 0.037
GAGAAAGCTA | 1.031 ± 0.0084
GAGAAAGGTT | 1.09 ± 0.2
GAGAACATGG | 1.03 ± 0.035

Sequence | switch fluorescence ratio
GAGAAGGGAC | 1.03 ± 0.046
GAGAATGGGG | 0.983 ± 0.024
GAGAATTGTA | 0.97 ± 0.03
GAGACAATTC | 1.06 ± 0.017
GAGACGCTTT | 1.04 ± 0.049
GAGACTATTT | 0.976 ± 0.056
GAGACTGATG | 1.05 ± 0.14
GAGACTTAGA | 1.007 ± 0.0038
GAGACTTGTT | 0.997 ± 0.042
GAGAGCCGAA | 1.02 ± 0.062
GAGAGCGGGG | 0.968 ± 0.033
GAGAGGGAAT | 1.021 ± 0.0091
GAGAGGGGTA | 0.974 ± 0.014
GAGAGGGTAC | 1.03 ± 0.063
GAGAGTGAAT | 1.01 ± 0.081
GAGAGTTAAA | 0.976 ± 0.015
GAGATAAGAG | 1.01 ± 0.022
GAGATAAGCT | 1.04 ± 0.022
GAGATAGAGA | 1.02 ± 0.03
GAGATATTGT | 1.03 ± 0.038
GAGATCGTCG | 0.993 ± 0.01
GAGATCTTGG | 0.9824 ± 0.0045
GAGATGAGCG | 0.997 ± 0.035
GAGATGCGAG | 0.963 ± 0.021
GAGATGTGCG | 0.9319 ± 0.008

From the supplement of paper PMC10126150
